The values below come from patent publication US20210277145A1 (INSERM INSTITUT NATIONAL DE LA SANTE ET DE LA RECHERCHE …, published 2021).

The target in assay [1] is T1, murine albumin (murine, UniProt P07724 25-608). In words: ELISA, albumin coated at 10 microgram/ml, anti-His tag detection. An excerpt:
(§1) Example 1: Binding of KB-AT-002/003_ABP to human and murine albumin in an immunosorbent assay. Binding to albumin may be favorable to increase the size of sdAbs, which are smaller sized than conventional immunoglobulins (15 kDa versus 150 kDa, for a monovalent sdAb and IgG, respectively). A construct was established encoding a bi-paratopic sdAb (KB-AT-002/003) fused to an albumin binding peptide (ABP, with the amino acid sequence […]) resulting in the sdAb designated KB-AT-002/003_ABP (SEQ ID NO: 18). Purified KB-AT-002/003_ABP was tested for binding to both human and murine albumin. Human and murine albumin were immobilized (10 microgram/ml) in 10 mM NaHCO₃, 50 mM Na2CO3 (pH 9.5) in a volume of 50 microliter in microtiter plates (Greiner Bio-One, Les Ulis, France) for 16 h at 4° C. As a negative control, no albumin was immobilized. […]
(§2) Wells were then washed three times with 200 microliter/well using TBS-T. Bound of KB-AT-002/003_ABP was probed with peroxidase-labeled monoclonal anti-His tag antibodies (Abcam, diluted 1/10000) for 2 hours at 37° C. with 50 microliter/well. Wells were then washed three times with 100 microliter/well using TBS-T. Residual peroxidase activity was detected by measuring peroxidase-mediated […] of 3,3′,5,5′-tetramethylbenzidine. […]
A general note: ELISA stands for enzyme-linked immunosorbent assay.

For assay [2], the target named is T2, human albumin (human, UniProt P02768 25-609).
T2 construct: Coated on microtiter wells at 10 microgram/ml
The description is as above.
From the text: as §1, §2

In assay [3] the target is T3, biotinylated murine albumin (murine, UniProt P07724 25-608, biotinylated (sites not given)).
T3 construct: Captured on streptavidin biosensors; also called murine bt-albumin; bt-albumin
In words: biolayer interferometry (Octet-QK), bt-albumin on streptavidin sensors, sdAb at 125 or 250 microgram/ml. Here is the method: (§3) Example 2: Binding of KB-AT-002/003_ABP to biotinylated human albumin in a biolayer-interferometry analysis assay. We tested the binding of KB-AT-002/003_ABP to biotinylated human albumin using Octet-QK equipment (FIG. 2). To this end, biotinylated albumin (bt-albumin) was diluted in phosphate-buffered saline with 0.1% Tween-20 (PBS-T) to a concentration of 200 microgram/ml for absorption to streptavidin-high binding capacity sensors (Fortébio, Menlo Park, Calif., USA). Sensors were rehydrated in 0.2 ml PBS-T for 15 min. Sensors were then incubated with 0.1 ml bt-albumin solution for 600 sec. Sensors were subsequently allowed to reach stable baseline levels via incubation with PBS-T for 300 sec. bt-Albumin coated sensors were then transferred to wells containing KB-AT-002/003_ABP (125 or 250 microgram/ml in PBS-T) and incubated for 300 sec in order to visualize association of KB-AT-002/003_ABP to immobilized bt-albumin. Following this association phase, sensors were transferred to wells containing PBS-T, and incubated for 900 sec, allowing dissociation of the KB-AT-002/003_ABP/bt-albumin complex.
(§4) Example 3: Binding of KB-VWF-013bv_ABP to biotinylated human or murine albumin in a biolayer-interferometry analysis assay. We tested the binding of KB-VWF-013bv_ABP (SEQ ID NO: 6) to biotinylated human or murine albumin using Octet-QK equipment (FIG. 3). To this end, biotinylated albumin (bt-albumin) was diluted in phosphate-buffered saline with 0.1% Tween-20 (PBS-T) to a concentration of 200 microgram/ml for absorption to streptavidin-high binding capacity sensors (Fortébio, Menlo Park, Calif., USA). Sensors were rehydrated in 0.2 ml PBS-T for 15 min. Sensors were then incubated with 0.1 ml bt-albumin solution for 600 sec. Sensors were subsequently allowed to reach stable baseline levels via incubation with PBS-T for 300 sec. bt-Albumin coated sensors were then transferred to wells containing KB-VWF-013bv_ABP (125 or 250 microgram/ml in PBS-T) and incubated for 900 sec in order to visualize association of KB-VWF-013bv_ABP to immobilized bt-albumin.
(In general: BLI is a label-free optical method that tracks binding on a fibre tip over time.)

Assay [4] deals with T4, biotinylated human albumin (human, UniProt P02768 25-609, biotinylated (sites not given)).
T4 construct: Captured on streptavidin biosensors; also called human bt-albumin; bt-albumin
The description is as above. On the procedure: as §3, §4

Assay [5] deals with T5, human antithrombin (human, UniProt P01008 33-464).
T5 construct: also called AT
The experiment in a line: biolayer interferometry (Octet-QK), human antithrombin coupled to amine-reactive sensors, sdAb in solution (100 microgram/ml by paragraph 127). Here is the method: Example 4: Binding of murine albumin to a complex of antithrombin and KB-AT-002/003_ABP. We tested the binding of albumin to KB-AT-002/003_ABP while the sdAb was bound to antithrombin via biolayer-interferometry analysis using Octet-QK equipment (FIG. 4). To this end, human antithrombin was diluted in 0.1 M Mes (pH 5.0) to a concentration of 50 microgram/ml for coupling to EDC/NHS-activated amine-reactive biosensors (Fortébio, Menlo Park, Calif., USA). Sensors were rehydrated in 0.2 ml 0.1 M MES, pH 5.0 for 300 sec. Sensors were then activated via incubation with 0.1 ml 0.2 M EDC/0.095 M NHS mixture for 300 sec and subsequently incubated with 0.1 ml antithrombin-solution for 600 sec. Unoccupied amine-reactive sites were quenched by incubating with 1M ethanolamine for 180 sec, and sensors were allowed to reach stable baseline levels via incubation with phosphate-buffered saline supplemented with 0.1% Tween-20 (PBS-T) for 300 sec. Antithrombin-coated sensors were then transferred to wells containing KB-AT-002/003_ABP (100 microgram/ml in PBS-T) and incubated for 600 sec in order to visualize association of KB-AT-002/003_ABP to immobilized antithrombin. […] As is showing in the lower panel of FIG. 4, KB-AT-002/003_ABP bound readily to immobilized antithrombin.

Assay [6] has as its target T1, murine albumin. The experiment in a line: immunosorbent assay: murine albumin coated at 10 microgram/ml, bound sdAb probed with peroxidase-labeled anti-His tag antibody, corrected for non-coated wells.
From the text: as §1, §2

T5 sequence (P01008 33-464 limits assumed): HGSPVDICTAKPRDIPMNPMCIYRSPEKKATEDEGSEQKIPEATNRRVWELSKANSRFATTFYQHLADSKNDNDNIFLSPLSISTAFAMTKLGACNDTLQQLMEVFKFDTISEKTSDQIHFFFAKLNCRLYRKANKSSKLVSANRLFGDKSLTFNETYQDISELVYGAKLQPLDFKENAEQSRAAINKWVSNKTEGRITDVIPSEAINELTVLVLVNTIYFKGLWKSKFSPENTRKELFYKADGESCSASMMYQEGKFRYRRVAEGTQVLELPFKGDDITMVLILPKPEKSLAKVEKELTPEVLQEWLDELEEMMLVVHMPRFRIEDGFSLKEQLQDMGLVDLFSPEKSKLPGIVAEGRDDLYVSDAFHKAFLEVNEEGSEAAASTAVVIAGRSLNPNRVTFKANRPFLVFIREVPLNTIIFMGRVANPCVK

B1: KB-AT-002/003 (VHH)
chain: QVQLQESGGGLVQAGGSLRLSCAASGRTFNNNGMGWFRQAPGKEREFVAAISWSGGSTYYADSVKGRYIMSRDNAKNTVYLQMNSLKPEDTAVYYCAARTRYNSGLFSRNYDYWGQGTQVTVSSGGGSGGGSGGGSGGGSQVQLQESGGGLVQPGGSLRLSCAASALTFSSRAWAWYRQAPGKQRELVASITGGGTTNYADSVKGRFTISRDNAKNTVYLQMNSLKPEDTAVHYCNGYRYTYAWGQGTQVTVSS
notes: A tag is not described, but a His tag is likely, since the ELISA detects with anti-His antibodies
On to B1, for which the binding result in assay [1] and in assay [2] was “no binding (tested: 0-10 microgram/ml)” throughout.

B2: KB-VWF-013bv_ABP (VHH)
chain: QVQLQSGGGLVQAGDSLRLSCAASGRTFIRYAMAWFRQAPGKEREFVAAIPQSGGRSYYADSVKGRFTISRDNAKNTVYLQMNSLKPEDTAVYSCAATSTYYGRSAYSSHSGGYDYWGQGTQVTVSSGGGSGGGSGGGSGGGSQVQLVQSGGGLVQAGDSLRLSCAASGRTFIRYAMAWFRQAPGKEREFVAAIPQSGGRSYYADSVKGRFTISRDNAKNTVYLQMNSLKPEDTAVYSCAATSTYYGRSAYSSHSGGYDYWGQGTQVTVSSGRGGGSLTPRGVRLGGGSQGLIGDIALPRWGALWGDSV
notes: A tag is not described; also called KB-VWF-013_ABP
By Kd is commonly meant a measure of binding affinity in units of concentration. Low values mean higher affinity, high ones lower affinity. Regarding B2, the Kd in assay [3] was determined as 83 nM; in assay [4], 99 nM.

B3: KB-AT-002/003_ABP (VHH)
chain: QVQLQESGGGLVQAGGSLRLSCAASGRTFNNNGMGWFRQAPGKEREFVAAISWSGGSTYYADSVKGRYIMSRDNAKNTVYLQMNSLKPEDTAVYYCAARTRYNSGLFSRNYDYWGQGTQVTVSSGGGSGGGSGGGSGGGSQVQLQESGGGLVQPGGSLRLSCAASALTFSSRAWAWYRQAPGKQRELVASITGGGTTNYADSVKGRFTISRDNAKNTVYLQMNSLKPEDTAVHYCNGYRYTYAWGQGTQVTVSSGRGGGSGGGSGGGSGGGSQGLIGDIALPRWGALWGDSV
notes: It was detected with anti-His tag antibodies, so the protein tested carried a His tag; also called KB-AT-002/003_AlbBP
For B3, the binding result in assay [5] and in assay [6] was “binds” each time. Also, the Kd in assay [4] was found to be 420 nM.
